PMC9482650, “Quantitative fragmentomics allow affinity mapping of interactomes” (Nature Communications, 2022)
One block for each binder: values may come before it.

Columns and labels:
Test in all cases: holdup assay
Design in all cases: key: below the threshold = too weak to quantify, mostly under pKd 3.1 to 4
APBA1_1, Q02410 = biological target: T1, APBA1_1, Q02410
T1 sequence (Q02410 651-752, limits assumed, looked up): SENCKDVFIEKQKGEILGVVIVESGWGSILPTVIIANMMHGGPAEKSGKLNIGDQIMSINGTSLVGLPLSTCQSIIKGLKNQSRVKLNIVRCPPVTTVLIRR

DFNB31_2, Q9P202 = biological target: T2, DFNB31_2, Q9P202
T2 sequence (Q9P202 274-371, limits assumed, looked up): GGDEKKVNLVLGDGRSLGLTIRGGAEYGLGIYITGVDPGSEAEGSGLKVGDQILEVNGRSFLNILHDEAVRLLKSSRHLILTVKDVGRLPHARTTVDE

DLG2_2, Q15700 = biological target: DLG2_2, Q15700
DVL3, Q92997 = biological target: T3, DVL3, Q92997
T3 sequence (Q92997 244-331, limits assumed, looked up): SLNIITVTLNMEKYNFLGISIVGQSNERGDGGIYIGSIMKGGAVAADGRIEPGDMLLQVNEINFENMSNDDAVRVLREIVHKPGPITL

FRMPD1, Q5SYB0 = biological target: T4, FRMPD1, Q5SYB0
T4 sequence (Q5SYB0 52-145, limits assumed, looked up): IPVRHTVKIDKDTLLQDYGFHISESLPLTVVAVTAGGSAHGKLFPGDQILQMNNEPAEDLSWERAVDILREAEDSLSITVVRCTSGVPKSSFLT

FRMPD2_3, Q68DX3 = biological target: FRMPD2_3, Q68DX3
FRMPD3, Q5JV73 = biological target: FRMPD3, Q5JV73
GRIP1_3, Q9Y3R0 = biological target: T5, GRIP1_3, Q9Y3R0
T5 sequence (Q9Y3R0 247-346, limits assumed, looked up): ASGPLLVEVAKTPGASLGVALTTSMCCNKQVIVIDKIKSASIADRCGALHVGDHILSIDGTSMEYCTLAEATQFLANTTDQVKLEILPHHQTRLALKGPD

IL16_4, Q14005 = biological target: IL16_4, Q14005
Inadl_1, Q8NI35 = biological target: Inadl_1, Q8NI35
Inadl_3, Q8NI35 = biological target: Inadl_3, Q8NI35
Inadl_5, Q8NI35 = biological target: Inadl_5, Q8NI35
LNX1_2, Q8TBB1 = biological target: LNX1_2, Q8TBB1
LNX1_3, Q8TBB1 = biological target: LNX1_3, Q8TBB1
MAGI2_2, Q86UL8 = biological target: MAGI2_2, Q86UL8
MAGI2_6, Q86UL8 = biological target: MAGI2_6, Q86UL8
MPDZ_12, O75970 = biological target: T6, MPDZ_12, O75970
T6 sequence (O75970 1857-1958, limits assumed, looked up): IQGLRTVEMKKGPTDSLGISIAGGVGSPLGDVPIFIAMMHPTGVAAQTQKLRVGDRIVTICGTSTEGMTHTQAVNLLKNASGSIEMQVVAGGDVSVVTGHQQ

NHERF4_1, Q86UT5-2 = biological target: NHERF4_1, Q86UT5-2
NHERF4_4, Q86UT5 = biological target: NHERF4_4, Q86UT5
NOS1, P29475 = biological target: NOS1, P29475
PCLO, Q9Y6V0 = biological target: T7, PCLO, Q9Y6V0
T7 sequence (Q9Y6V0 4491-4600, limits assumed, looked up): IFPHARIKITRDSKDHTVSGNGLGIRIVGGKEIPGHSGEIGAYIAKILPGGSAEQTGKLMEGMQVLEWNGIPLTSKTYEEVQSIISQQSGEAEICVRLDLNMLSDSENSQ

PDZD2_2, O15018 = biological target: T8, PDZD2_2, O15018
T8 sequence (O15018 329-429, limits assumed, looked up): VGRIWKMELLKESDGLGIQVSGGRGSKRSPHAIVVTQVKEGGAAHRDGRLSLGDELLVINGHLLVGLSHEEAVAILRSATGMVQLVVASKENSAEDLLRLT

PDZRN3_1, Q9UPQ7 = biological target: T9, PDZRN3_1, Q9UPQ7
T9 sequence (Q9UPQ7 244-349, limits assumed, looked up): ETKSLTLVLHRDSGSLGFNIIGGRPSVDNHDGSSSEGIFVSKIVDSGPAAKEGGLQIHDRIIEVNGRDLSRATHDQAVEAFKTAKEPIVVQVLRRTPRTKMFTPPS

PTPN13_1, Q12923 = biological target: T10, PTPN13_1, Q12923
T10 sequence (Q12923 1088-1188, limits assumed, looked up): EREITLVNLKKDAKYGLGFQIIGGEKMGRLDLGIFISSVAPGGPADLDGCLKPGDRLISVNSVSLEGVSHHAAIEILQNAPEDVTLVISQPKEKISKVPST

SHANK1, Q9Y566 = biological target: T11, SHANK1, Q9Y566
T11 sequence (Q9Y566 658-767, limits assumed, looked up): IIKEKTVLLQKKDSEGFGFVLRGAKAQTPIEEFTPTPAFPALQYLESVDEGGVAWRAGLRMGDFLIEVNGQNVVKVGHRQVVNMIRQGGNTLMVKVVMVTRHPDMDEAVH

[1] = plain residues with an end cap or a label only (N-terminal biotin on a linker: ttds)
[2] = plain residues with an end cap or a label only (N-terminal biotin on a linker: ahx)

Chain of NHERF4_4, Q86UT5 (Q86UT5 464-550): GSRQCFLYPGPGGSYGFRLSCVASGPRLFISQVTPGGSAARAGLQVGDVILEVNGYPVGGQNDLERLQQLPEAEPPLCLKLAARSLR
Chain of Inadl_3, Q8NI35 (Q8NI35 359-469): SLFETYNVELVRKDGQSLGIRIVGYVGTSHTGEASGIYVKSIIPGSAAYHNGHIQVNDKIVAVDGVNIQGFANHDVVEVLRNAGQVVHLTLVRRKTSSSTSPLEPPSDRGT
Chain of FRMPD2_3, Q68DX3 (Q68DX3 1073-1166): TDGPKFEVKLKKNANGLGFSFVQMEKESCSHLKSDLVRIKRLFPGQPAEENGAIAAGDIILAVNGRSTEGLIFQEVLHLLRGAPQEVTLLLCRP
Chain of IL16_4, Q14005 (Q14005 1229-1329): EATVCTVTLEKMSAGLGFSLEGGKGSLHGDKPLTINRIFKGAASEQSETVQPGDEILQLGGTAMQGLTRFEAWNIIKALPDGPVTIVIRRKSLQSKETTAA
Chain of Inadl_1, Q8NI35 (Q8NI35 113-229): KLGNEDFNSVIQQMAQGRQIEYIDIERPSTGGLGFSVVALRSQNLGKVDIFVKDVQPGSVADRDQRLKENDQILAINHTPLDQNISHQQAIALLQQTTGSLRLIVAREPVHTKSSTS
Chain of FRMPD3, Q5JV73 (Q5JV73 12-100): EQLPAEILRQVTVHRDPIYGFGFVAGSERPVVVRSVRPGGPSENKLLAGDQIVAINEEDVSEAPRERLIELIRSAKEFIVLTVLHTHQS
Chain of LNX1_2, Q8TBB1 (Q8TBB1 371-470): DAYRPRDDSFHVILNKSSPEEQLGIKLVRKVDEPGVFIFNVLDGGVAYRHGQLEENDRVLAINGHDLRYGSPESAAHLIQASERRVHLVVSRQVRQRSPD
Chain of MAGI2_2, Q86UL8 (Q86UL8 410-522): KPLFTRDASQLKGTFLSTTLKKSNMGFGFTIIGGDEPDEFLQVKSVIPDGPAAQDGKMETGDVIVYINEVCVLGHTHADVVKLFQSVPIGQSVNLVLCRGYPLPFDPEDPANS
Chain of NOS1, P29475 (P29475 9-101): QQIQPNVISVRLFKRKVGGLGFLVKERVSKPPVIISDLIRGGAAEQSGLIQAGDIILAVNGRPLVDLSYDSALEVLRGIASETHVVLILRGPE
Chain of LNX1_3, Q8TBB1 (Q8TBB1 500-596): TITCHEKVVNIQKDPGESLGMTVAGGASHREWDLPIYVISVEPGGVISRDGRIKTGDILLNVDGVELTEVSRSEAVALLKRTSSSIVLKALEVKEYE
Chain of MAGI2_6, Q86UL8 (Q86UL8 1141-1229): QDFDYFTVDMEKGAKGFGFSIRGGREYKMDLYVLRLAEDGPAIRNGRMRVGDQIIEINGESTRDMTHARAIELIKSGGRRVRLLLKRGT
Chain of Inadl_5, Q8NI35 (Q8NI35 673-780): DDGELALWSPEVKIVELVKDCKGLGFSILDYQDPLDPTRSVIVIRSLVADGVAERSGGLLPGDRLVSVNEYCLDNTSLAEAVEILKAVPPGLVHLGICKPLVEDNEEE
Chain of DLG2_2, Q15700 (Q15700 189-283): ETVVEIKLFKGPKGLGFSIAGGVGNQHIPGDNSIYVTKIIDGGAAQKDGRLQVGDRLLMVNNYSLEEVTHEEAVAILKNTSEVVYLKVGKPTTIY
Chain of NHERF4_1, Q86UT5-2 (Q86UT5 other isoform, or with tags, fused parts or gaps): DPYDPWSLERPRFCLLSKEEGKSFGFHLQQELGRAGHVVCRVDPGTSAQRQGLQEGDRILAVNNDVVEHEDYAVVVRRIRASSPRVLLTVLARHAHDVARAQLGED

- pKd (APBA1_1, Q02410; [1]): below the threshold
- pKd (DFNB31_2, Q9P202; [1]): below the threshold
- pKd (DLG2_2, Q15700; [1]): 4.47
- pKd (DVL3, Q92997; [1]): below the threshold
- pKd (FRMPD1, Q5SYB0; [1]): below the threshold
- pKd (FRMPD2_3, Q68DX3; [1]): below the threshold
- pKd (FRMPD3, Q5JV73; [1]): below the threshold
- pKd (GRIP1_3, Q9Y3R0; [1]): below the threshold
- pKd (IL16_4, Q14005; [1]): below the threshold
- pKd (Inadl_1, Q8NI35; [1]): below the threshold
- pKd (Inadl_3, Q8NI35; [1]): below the threshold
- pKd (Inadl_5, Q8NI35; [1]): below the threshold
- pKd (LNX1_2, Q8TBB1; [1]): below the threshold
- pKd (LNX1_3, Q8TBB1; [1]): below the threshold
- pKd (MAGI2_2, Q86UL8; [1]): below the threshold
- pKd (MAGI2_6, Q86UL8; [1]): below the threshold
- pKd (MPDZ_12, O75970; [1]): below the threshold
- pKd (NHERF4_1, Q86UT5-2; [1]): 4.06
- pKd (NHERF4_4, Q86UT5; [1]): below the threshold
- pKd (NOS1, P29475; [1]): 4.05
- pKd (PCLO, Q9Y6V0; [1]): below the threshold
- pKd (PDZD2_2, O15018; [1]): below the threshold
- pKd (PDZRN3_1, Q9UPQ7; [1]): 4.97
- pKd (PTPN13_1, Q12923; [1]): below the threshold
- pKd (SHANK1, Q9Y566; [1]): 4.67
Binder: GQDSREETQL [KCNT2, Q6UVM3]

- pKd (APBA1_1, Q02410; [2]): below the threshold
- pKd (DFNB31_2, Q9P202; [2]): below the threshold
- pKd (DLG2_2, Q15700; [2]): below the threshold
- pKd (DVL3, Q92997; [2]): below the threshold
- pKd (FRMPD1, Q5SYB0; [2]): below the threshold
- pKd (FRMPD2_3, Q68DX3; [2]): below the threshold
- pKd (FRMPD3, Q5JV73; [2]): below the threshold
- pKd (GRIP1_3, Q9Y3R0; [2]): below the threshold
- pKd (IL16_4, Q14005; [2]): below the threshold
- pKd (Inadl_1, Q8NI35; [2]): below the threshold
- pKd (Inadl_3, Q8NI35; [2]): below the threshold
- pKd (Inadl_5, Q8NI35; [2]): below the threshold
- pKd (LNX1_2, Q8TBB1; [2]): below the threshold
- pKd (LNX1_3, Q8TBB1; [2]): below the threshold
- pKd (MAGI2_2, Q86UL8; [2]): below the threshold
- pKd (MAGI2_6, Q86UL8; [2]): below the threshold
- pKd (MPDZ_12, O75970; [2]): below the threshold
- pKd (NHERF4_1, Q86UT5-2; [2]): below the threshold
- pKd (NHERF4_4, Q86UT5; [2]): below the threshold
- pKd (NOS1, P29475; [2]): below the threshold
- pKd (PCLO, Q9Y6V0; [2]): below the threshold
- pKd (PDZD2_2, O15018; [2]): below the threshold
- pKd (PDZRN3_1, Q9UPQ7; [2]): below the threshold
- pKd (PTPN13_1, Q12923; [2]): below the threshold
- pKd (SHANK1, Q9Y566; [2]): below the threshold
Binder: TEAKLTETNA [MYO18A, Q92614]

- pKd (APBA1_1, Q02410; [1]): below the threshold
- pKd (DFNB31_2, Q9P202; [1]): below the threshold
- pKd (DLG2_2, Q15700; [1]): below the threshold
- pKd (DVL3, Q92997; [1]): below the threshold
- pKd (FRMPD1, Q5SYB0; [1]): below the threshold
- pKd (FRMPD2_3, Q68DX3; [1]): below the threshold
- pKd (FRMPD3, Q5JV73; [1]): below the threshold
- pKd (GRIP1_3, Q9Y3R0; [1]): below the threshold
- pKd (IL16_4, Q14005; [1]): below the threshold
- pKd (Inadl_1, Q8NI35; [1]): below the threshold
- pKd (Inadl_3, Q8NI35; [1]): below the threshold
- pKd (Inadl_5, Q8NI35; [1]): below the threshold
- pKd (LNX1_2, Q8TBB1; [1]): below the threshold
- pKd (LNX1_3, Q8TBB1; [1]): below the threshold
- pKd (MAGI2_2, Q86UL8; [1]): below the threshold
- pKd (MAGI2_6, Q86UL8; [1]): 3.79
- pKd (MPDZ_12, O75970; [1]): below the threshold
- pKd (NHERF4_1, Q86UT5-2; [1]): 4.16
- pKd (NHERF4_4, Q86UT5; [1]): below the threshold
- pKd (NOS1, P29475; [1]): 3.95
- pKd (PCLO, Q9Y6V0; [1]): below the threshold
- pKd (PDZD2_2, O15018; [1]): 4.11
- pKd (PDZRN3_1, Q9UPQ7; [1]): 4.44
- pKd (PTPN13_1, Q12923; [1]): below the threshold
- pKd (SHANK1, Q9Y566; [1]): 5.53
Binder: IDNDTESTAL [ARHGAP17, Q68EM7]
